According to the supplement of paper PMC7125110:
± gives the standard error. Variants at the floor of the assay were thinned out.

B1: glmS ribozyme (parent)
chain: AUAAAAGCGCCAGAACUACAGAAAUGUAGUUGACGAGGAGGAGGUUUAUCGAAUUUUCGGCGGAUGCCUCCAAA

Experiments:
Settings in all cases: with glucosamine-6-phosphate
glucosamine-6-phosphate [1] = variants of: B1; experiment: self-cleavage kobs at 640 uM GlcN6P; higher = faster cleavage; RNA array
How it was run: (§1)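 Weighted Michaelis–Menten fits across concentrations supplied kcat and KM, based on kobs from one- or two-exponential decay fits to normalised per-tile medians. The data came from barcoded ribozyme variants transcribed in situ by E. coli RNA polymerase on sequenced MiSeq chips and tracked at 37 °C by a hybridised Cy3 probe. Glucosamine-6-phosphate (40 μM to 10 mM) in HEPES/KCl/Mg(OAc)2 buffer was flowed in.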

glucosamine-6-phosphate [2] = variants of: B1; experiment: self-cleavage kobs at 2500 uM GlcN6P; higher = faster cleavage; RNA array
How it was run: as §1

glucosamine-6-phosphate [3] = variants of: B1; experiment: self-cleavage kobs at 10000 uM GlcN6P; higher = faster cleavage; RNA array
How it was run: as §1

| Variant | self-cleavage kobs at 640 uM GlcN6P (glucosamine-6-phosphate [1]) [s⁻¹] | self-cleavage kobs at 2500 uM GlcN6P (glucosamine-6-phosphate [2]) [s⁻¹] | self-cleavage kobs at 10000 uM GlcN6P (glucosamine-6-phosphate [3]) [s⁻¹] |
| --- | --- | --- | --- |
| A33C A42C U47G U56G | < 1e-05 | – | – |
| A12C A33C G40U G63U C68U | < 1e-05 | < 1e-05 | – |
| G13C U57C C58A | < 1e-05 | – | – |
| A14C A15G G37C U49C | < 1e-05 | – | – |
| A12C U30G U45C C50A A52U | < 1e-05 | – | – |
| G29U G32U C58U C67A | 3.68e-05 ± 1.8e-05 | 8.93e-05 ± 2.6e-05 | – |
| C16U A39G G40A A42G G43A U45G | 0.00638 ± 0.0016 | 0.0072 ± 0.0024 | – |
| A15G A33G A48G G60U | < 1e-05 | – | – |
| A15C U45G U56C C58A C67G C68A | 8.64e-05 ± 2.9e-05 | – | – |
| U31A C34U G51U | < 1e-05 | < 1e-05 | – |
| G32C G37U G51C | < 1e-05 | – | – |
| A12G G13U G62A | < 1e-05 | – | – |
| C11G A12C C70U | 6.11e-05 ± 2.5e-05 | 8.42e-05 ± 2.9e-05 | – |
| G29A G35U A42U | < 1e-05 | < 1e-05 | < 1e-05 |
| C11A U30C A53C C71U | < 1e-05 | – | – |
| A14C A33C C67G | < 1e-05 | – | – |
| C11A U31A G60A | < 1e-05 | – | – |
| A12G A39G C70G | 0.00011 ± 3.5e-05 | – | – |
| G32U A33U U45A | < 1e-05 | – | – |
| C16G A48G U56G G59A | < 1e-05 | – | – |
| G13U G41U A52C | < 1e-05 | – | – |
| A15G C16A U30C | 0.000332 ± 0.00012 | 0.00063 ± 0.00023 | – |
| G29C U30G A33U C58U | < 1e-05 | < 1e-05 | – |
| C11A G35A G63U A64C | < 1e-05 | < 1e-05 | – |

| Variant | self-cleavage kobs at 640 uM GlcN6P (glucosamine-6-phosphate [1]) [s⁻¹] | self-cleavage kobs at 2500 uM GlcN6P (glucosamine-6-phosphate [2]) [s⁻¹] | self-cleavage kobs at 10000 uM GlcN6P (glucosamine-6-phosphate [3]) [s⁻¹] |
| --- | --- | --- | --- |
| C11A C16G A42U U56G C71U | < 1e-05 | < 1e-05 | – |
| G29C G51U | < 1e-05 | – | – |
| A14G C16U G41A | 0.00178 ± 0.00032 | 0.0028 ± 0.00078 | – |
| A15C U30C U31G U69G | 0.00017 ± 4.8e-05 | – | – |
| A14C G40U A52U | < 1e-05 | – | – |
| U31C G41A G63C C68A | < 1e-05 | – | – |
| G13C A48G U49C | < 1e-05 | – | – |
| C16U A33C | 9.7e-05 ± 3.1e-05 | 8.5e-05 ± 2.1e-05 | 0.000247 ± 3.7e-05 |
| A12C U49A A52C | < 1e-05 | – | – |
| A14G G40U G41C | 7.7e-05 ± 1.5e-05 | 0.00015 ± 3.4e-05 | – |
| U30G G41U C50A | < 1e-05 | < 1e-05 | – |
| G13C G29C G44U C50A G62C | < 1e-05 | < 1e-05 | < 1e-05 |
| A14U C16A G66A | 3.92e-05 ± 1.7e-05 | 0.000107 ± 2.6e-05 | – |
| A33G A36U C70G | 0.000157 ± 5.3e-05 | – | – |
| A15G C16G U46G | 9.78e-05 ± 2.8e-05 | 0.000248 ± 9.3e-05 | – |
| G21U G26U U65G G66U U69G | 0.000207 ± 8.9e-05 | – | – |
| C16U G51A G63A G66A | < 1e-05 | – | – |
| A14G G29A G32U | 0.000272 ± 0.0001 | 0.000568 ± 0.00014 | – |
| A12C G32A A64G C71A | < 1e-05 | – | – |
| U30C G63U C70G | 3.84e-05 ± 1.8e-05 | – | – |
| A12G U46A | 6e-05 ± 1.9e-05 | 4.25e-05 ± 1.5e-05 | 0.000187 ± 4.1e-05 |
| A12G A14U A42U U54A C70G | < 1e-05 | – | – |
| A14C G32A G40U G59C | < 1e-05 | – | – |
| G13A G40A G62A | < 1e-05 | < 1e-05 | – |

| Variant | self-cleavage kobs at 640 uM GlcN6P (glucosamine-6-phosphate [1]) [s⁻¹] | self-cleavage kobs at 2500 uM GlcN6P (glucosamine-6-phosphate [2]) [s⁻¹] | self-cleavage kobs at 10000 uM GlcN6P (glucosamine-6-phosphate [3]) [s⁻¹] |
| --- | --- | --- | --- |
| C16U G32U C58G | 0.00017 ± 3.4e-05 | – | – |
| G13U C50A A64U U65G | < 1e-05 | < 1e-05 | – |
| A14G G32A G60A C61A C67A C70U | 0.000302 ± 0.00012 | – | – |
| C16U U31C G32C G44A U49G C61G U65A | < 1e-05 | < 1e-05 | – |
| C16A G32A C70G | 7.42e-05 ± 3e-05 | – | 0.000127 ± 3.4e-05 |
| U31G G37C U69G | 9.22e-05 ± 3.2e-05 | – | – |
| A14C C16A C71G | 6.58e-05 ± 2.7e-05 | 4.2e-05 ± 2.1e-05 | – |
| C16U A39G U55C | 0.0143 ± 0.0027 | – | – |
| A14U G35A G40C | < 1e-05 | – | – |
| A14G U30A A36U C58U G66U | < 1e-05 | – | – |
| G13U G29A A33U | < 1e-05 | – | – |
| U30C G32U U47A | 0.000115 ± 3.3e-05 | 0.000106 ± 3e-05 | – |
| A33G G40C G41C G43A U49A | < 1e-05 | < 1e-05 | – |
| A14C U49G C68U | < 1e-05 | – | – |
| G32A G43A G63A A64G | < 1e-05 | < 1e-05 | – |
| U31G A33C C50U U56C A64G | < 1e-05 | < 1e-05 | – |
| A12U G32C G35C A42U | < 1e-05 | – | – |
| G13U G35U C50U G66C | < 1e-05 | – | – |
| G13C G43C A48U | < 1e-05 | < 1e-05 | – |
| A15U C34G G63A | < 1e-05 | – | – |
| A12U C68A | 7.24e-05 ± 3.4e-05 | 2.89e-05 ± 1.2e-05 | – |
| G29C G37U U46A | < 1e-05 | < 1e-05 | < 1e-05 |
